Article PMC4057017

Biological target: BG505 EnvΔCT trimer (cleaved, membrane-derived) (HIV-1 isolate BG505 (clade A))
Assay: single particle EM reconstruction

Question: Which stoichiometry N (Fabs per trimer) does the source give for PGT151 Fab here?
Answer: 2
